Columns and labels:
[1] = target: PLIC-2 UBL domain UBLN2 1-107 (human, UniProt Q9UHD9 1-107); assay: NMR titration
Ubiquitin = Ubiquitin (UniProt P0CG48 1-76); assay: NMR titration

Chain of PLIC-2 UBL domain UBLN2 1-107 (Q9UHD9 1-107): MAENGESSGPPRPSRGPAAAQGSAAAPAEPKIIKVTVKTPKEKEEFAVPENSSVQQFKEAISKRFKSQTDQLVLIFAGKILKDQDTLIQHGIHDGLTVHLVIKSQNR

With PEVRFQQQLEQLNAMGFLNREANLQALIATGGDINAAIERLLGSQPS (domain or fragment, human, UniProt Q9UHD9 578-624, looked up) [PLIC-2 UBA domain UBLN2 578-624] the Kd [1] was 175 ± 25 µM and the Kd (Ubiquitin) was 8.1 ± 1.5 µM.
